T1: HPV16 E7 peptide on HLA-A*02:01 (human)
T1 peptide: YMLDLQPET

B1: CRTE7A2 TCR (variable regions fused to murine constant regions) (TCR, V domains shown)
V domain 1: RKEVEQDPGPFNVPEGATVAFNCTYSNSASQSFFWYRQDCRKEPKLLMSVYSSGNEDGRFTAQLNRASQYISLLIRDSKLSDSATYLCAVISAGTALIFGKGTTLSVSS
V domain 2: DAGVTQSPTHLIKTRGQQVTLRCSPKSGHDTVSWYQQALGQGPQFIFQYYEEEERQRGNFPDRFSGHQFPNYSSELNVNALLLGDSALYLCASSLGWRGGLYTEAFFGQGTRLTVVE
B2: CRTE7A2 (TCR, V domains shown)
Valpha: B1 V domain 1
Vbeta: DAGVTQSPTHLIKTRGQQVTLRCSPKSGHDTVSWYQQALGQGPQFIFQYYEEEERQRGNFPDRFSGHQFPNYSSELNVNALLLGDSALYLCASSLGWRGGLYTEAFFGQGTRLTVV

Tests used:
[1] = target: HPV16 E7 11-19 epitope (…) presented by HLA-A*02:01 (HPV16; human); assay: cell-based or functional assay
[2] = target: T1, HPV16 E7 peptide on HLA-A*02:01; assay: multimer staining

| Binder | activation level of the NFAT-GFP reporter gene in Jurkat cells co-incubated with peptide-loaded T2 cells (EC50) [1] | binding result [2] |
| --- | --- | --- |
| B1 | 31 nM | – |
| B2 | – | recognises |
